Data from patent US20030194400.

Molecular target: Fn-TF:Factor VIIa complex (UniProt P08709)
Sequence (chain, as listed by the source, chain 1 of 2): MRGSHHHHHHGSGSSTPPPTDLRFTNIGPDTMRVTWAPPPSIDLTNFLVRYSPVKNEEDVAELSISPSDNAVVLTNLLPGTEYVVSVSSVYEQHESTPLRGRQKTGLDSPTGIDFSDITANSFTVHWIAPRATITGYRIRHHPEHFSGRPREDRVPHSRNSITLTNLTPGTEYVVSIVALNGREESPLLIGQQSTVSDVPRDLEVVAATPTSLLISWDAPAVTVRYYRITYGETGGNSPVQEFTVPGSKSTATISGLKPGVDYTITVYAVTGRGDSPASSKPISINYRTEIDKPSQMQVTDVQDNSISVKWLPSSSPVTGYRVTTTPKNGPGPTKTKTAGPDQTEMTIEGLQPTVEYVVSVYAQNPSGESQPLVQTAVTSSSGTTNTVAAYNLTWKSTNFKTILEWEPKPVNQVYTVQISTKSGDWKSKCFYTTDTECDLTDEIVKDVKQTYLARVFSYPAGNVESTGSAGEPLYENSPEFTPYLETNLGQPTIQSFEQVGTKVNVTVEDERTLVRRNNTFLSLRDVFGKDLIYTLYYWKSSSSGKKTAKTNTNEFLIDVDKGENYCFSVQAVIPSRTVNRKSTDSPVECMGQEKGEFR
Sequence (P08709 61-466, chain 2 of 2): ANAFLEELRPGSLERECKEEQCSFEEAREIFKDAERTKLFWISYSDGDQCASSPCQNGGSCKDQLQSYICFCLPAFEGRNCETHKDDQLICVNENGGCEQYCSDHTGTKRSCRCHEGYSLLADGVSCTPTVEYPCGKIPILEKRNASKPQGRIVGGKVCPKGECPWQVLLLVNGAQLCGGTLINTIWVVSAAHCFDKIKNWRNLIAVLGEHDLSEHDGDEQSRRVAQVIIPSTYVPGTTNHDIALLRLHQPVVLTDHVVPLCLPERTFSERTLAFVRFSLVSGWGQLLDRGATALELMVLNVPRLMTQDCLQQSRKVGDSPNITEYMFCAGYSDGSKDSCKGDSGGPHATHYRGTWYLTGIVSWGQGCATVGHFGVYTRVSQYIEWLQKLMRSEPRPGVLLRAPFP

Chain of Factor X (chain): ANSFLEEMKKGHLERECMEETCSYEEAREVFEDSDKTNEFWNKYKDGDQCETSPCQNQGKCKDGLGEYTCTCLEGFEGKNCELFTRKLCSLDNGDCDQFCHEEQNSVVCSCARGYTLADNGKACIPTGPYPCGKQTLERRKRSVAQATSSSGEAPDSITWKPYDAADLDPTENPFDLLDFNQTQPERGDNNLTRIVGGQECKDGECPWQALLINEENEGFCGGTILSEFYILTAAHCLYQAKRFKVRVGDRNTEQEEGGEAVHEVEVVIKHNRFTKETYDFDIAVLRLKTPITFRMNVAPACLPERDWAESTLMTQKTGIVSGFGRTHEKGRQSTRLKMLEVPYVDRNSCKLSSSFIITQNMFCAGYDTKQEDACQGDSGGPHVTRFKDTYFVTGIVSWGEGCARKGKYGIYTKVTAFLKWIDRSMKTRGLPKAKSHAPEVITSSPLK

Substance: Factor X
- proteolytic activity toward Factor X (Factor Xa generation, Spectrozyme FXa): The increasing concentration of Fn-TF led to increased proteolytic activity similar to the curve obtained with TF1-218
